Reference: publication PMC6480404

Assays:
[1] = biological target: Streptococcus pyogenes Cas9 (Streptococcus pyogenes) (UniProt Q99ZW2); experiment: cryo-EM structure
[2] = biological target: Streptococcus pyogenes Cas9 (Streptococcus pyogenes) (UniProt Q99ZW2); experiment: native gel or EMSA

AcrIIA2 (natural protein) was tested, and the stoichiometry N [1] was 1 and the Kd [2] was 512 nM.
